In patent US20130195863A1, “Methods and Pharmaceutical Compositions for the Treatment of Bone Density Related Diseases” (priority 2010, published 2013):

Assays:
[1] = system: ROBO1; assay: Confocal microscopy of ROBO1 immunostaining; format: cell-based, human; settings: ShRNA-transfected vs scrambled-transfected cells
Method: Confocal microscopy: Subconfluent cell layers were fixed in 4% (w/v) formaldehyde for 30 min, washed three times with PBS and permeabilized for 5 min in PBS containing 0.2% (v/v) Triton-X-100. Permeabilized cells were then incubated with rabbit anti-Robo1 antibody ab7279 (17 μg/ml; AbCam) for 1 h, washed in PBS then incubated with a secondary, FITC-conjugated, anti-rabbit antibody (Sigma). Actin was labeled with phalloidin (Invitrogen) and nuclei were labeled with DAPI. Slides were viewed using confocal microscope Leica TCS-SP2.

[2] = system: MDA-MB-231/B02 human breast cancer cells; assay: Cell invasion assay (Matrigel-coated inserts); format: cell-based; settings: Sh1.32 and Sh1.33 cells vs scrambled-transfected and parental cells
Method: Cell migration and invasion assays: Cell migration and invasion assays were performed in 24-well cell culture chambers with 8-μm diameter pore-size inserts (Becton Dickinson), as previously described (Zhang et al., Cancer Res., 67:5821-5830, 2007). Inserts were coated with 100-μl basement membrane Matrigel (3 μg/ml; Becton Dickinson) for 90 min at 37° C. in order to perform cell invasion experiments. Cancer cells (1.5×10^5 cells/ml) were re-suspended in DMEM culture medium containing 0.1% (w/v) bovine serum albumin and 300-μl of this cell suspension were loaded into each insert (upper chamber). The chemoattractant [10% (v/v) fetal calf serum] was placed in the lower chamber (750 μl/well). The plates were incubated for 6 h at 37° C. in a 5% CO2 incubator. After incubation, the inserts were collected carefully, the nonmigrating cells were removed and the migrating cells on the under surface of the inserts were fixed and stained with crystal violet. The membranes were mounted on glass slides and cells were counted under microscope.

[3] = system: MDA-MB-231/B02 human breast cancer cells; assay: Scratch wound assay; format: cell-based; settings: Sh-transfected vs parental and scrambled-transfected cells; statistically significant
Method: Scratch wound assay: Cells were seeded at a concentration of 1×10^5 cells into 24-well plates and cultured for 24 hours at 37° C. in culture medium containing 10% (v/v) fetal calf serum. After incubation, the culture medium was removed and cells were further cultured in medium containing or not containing 5% (v/v) fetal calf serum, at which time a wound scratch was made on the cell monolayer by using a 20-μl micropipette tip. Cells were fixed, stained with crystal violet, and photographed 24 h later. Alternatively, cell migration was monitored by time-lapse videomicroscopy. Microscopic images were recorded, in a time lapse mode, with a CCD camera attached to a phase contrast microscope (Zeiss Axiovert 200M) and the behaviour of migrating cells was tracked over 24 hours using ImageJ software. Analysis of the images was performed using MetaMorph software.

[4] = system: ROBO4 mRNA; assay: ROBO4 mRNA expression after ROBO1 silencing; format: cell-based, human; settings: ROBO1 silencing in MDA-MB-231/B02 cells
Excerpt: (§1) The small hairpins RNA (siRNA) against human Robo1 were designed with the Promega Si Designer tool. The oligos used were as follows: ShRNA-RB1 forward, 5′-ACCgCAgTACTAAgggAA-CAATAAgTTCTCTATTgTTCCCTTAgTACTgCTTTTTC-3′(SEQ ID NO:1); ShRNA-RB1 reverse, 5′-TgCAgAAAAAgCAg-TACTAAgggAACAATAgAgAACTTATTgTTCCCTT-AgTACTg-3′ (SEQ ID NO:2).
(§2) The shRNAs and corresponding scrambles duplex were synthesized with the psiSTRIKE puromycin kit (Promega) under U6 promoter. MDA-MB-231/B02-Frt11 cells were transfected with the siRNA and scrambles duplex with Transfast Transfection Reagent (Promega), according to the manufacturer's instructions. Selection of the clones was obtained after growing the cells for two weeks in the presence of puromycin (2 μg/ml).
(§3) RNA isolation, reverse transcriptase-polymerase chain reaction (RT-PCR), and quantitative real-time PCR (qPCR): RNA was extracted from cells using the Nucleospin RNA II kit (Macherey-Nagel) and cDNA produced from 2 μg total RNA using the MMLV polymerase Promega. qPCR was performed using SYBR Green qPCR Kit (Finnzymes). Probes were purchased from Invitrogen.

[5] = system: ROBO1 mRNA; assay: Quantitative real-time PCR of ROBO1 transcript after ROBO1 silencing; format: cell-based, human; settings: clones Sh1.32 and Sh1.33 vs scrambled-transfected SC2.1 and SC2.4 cells
Excerpt: as §1, §2, §3

[6] = system: breast cancer cells expressing ROBO1 (SC-transfected MDA-MB-231/B02); assay: Effect of Slit2 on cell migration (96-microwell plates); format: cell-based, human; settings: conditioned medium from Slit2-expressing HEK cells; effect seen in SC-transfected cells as opposed to Sh-transfected (ROBO1-silenced) cells
Method: The effects of Slit2, […] (RANKL) and osteoprotegerin (OPG) on cell migration were studied using 96-microwell plates (Millipore). Experiments were carried out essentially as described above with minor modifications. Briefly, inserts were loaded with 75 μl of a cell suspension (2×10^5 cells/ml) and 150 μl of chemoattractant was placed in the lower chamber. The chemoattractant consisted of culture medium containing 0.5% (v/v) fetal calf serum with or without RANKL, OPG or the conditioned medium from Slit2-expressing HEK cells. Remaining of the experiments was as described above.

| Molecule | ROBO1 immunostaining at the plasma membrane [1] | invasion [2] | wound closure [3] | effect on ROBO4 mRNA expression levels [4] | ROBO1 transcript down regulation [5] [%] | migration of SC-transfected cells induced by FCS [6] |
| --- | --- | --- | --- | --- | --- | --- |
| ShRNA-RB1: small hairpin RNA against human Robo1, SEQ ID NO:1 forward and SEQ ID NO:2 reverse, under U6 promoter (nucleic acid, target site or template, no part of the molecule) sense: ACCGCAGTACTAAGGGAACAATAAGTTCTCTATTGTTCCCTTAGTACTGCTTTTTC antisense: TGCAGAAAAAGCAGTACTAAGGGAACAATAGAGAACTTATTGTTCCCTTAGTACTG | totally disappeared | substantial gain in invasion | faster wound closure | did not affect | 90 | – |
| Slit2: natural ligand of ROBO1; tested as conditioned medium from HEK cells stably expressing human Slit-2 (protein) QCSCSGSTVDCHGLALRSVPRNIPRNTERLDLNGNNITRITKTDFAGLRHLRVLQLMENKISTIERGAFQDLKELERLRLNRNHLQLFPELLFLGTAKLYRLDLSENQIQAIPRKAFRGAVDIKNLQLDYNQISCIEDGAFRALRDLEVLTLNNNNITRLSVASFNHMPKLRTFRLHSNNLYCDCHLAWLSDWLRQRPRVGLYTQCMGPSHLRGHNVAEVQKREFVCSGHQSFMAPSCSVLHCPAACTCSNNIVDCRGKGLTEIPTNLPETITEIRLEQNTIKVIPPGAFSPYKKLRRIDLSNNQISELAPDAFQGLRSLNSLVLYGNKITELPKSLFEGLFSLQLLLLNANKINCLRVDAFQDLHNLNLLSLYDNKLQTIAKGTFSPLRAIQTMHLAQNPFICDCHLKWLADYLHTNPIETSGARCTSPRRLANKRIGQIKSKKFRCSAKEQYFIPGTEDYRSKLSGDCFADLACPEKCRCEGTTVDCSNQKLNKIPEHIPQYTAELRLNNNEFTVLEATGIFKKLPQLRKINFSNNKITDIEEGAFEGASGVNEILLTSNRLENVQHKMFKGLESLKTLMLRSNRITCVGNDSFIGLSSVRLLSLYDNQITTVAPGAFDTLHSLSTLNLLANPFNCNCYLAWLGEWLRKKRIVTGNPRCQKPYFLKEIPIQDVAIQDFTCDDGNDDNSCSPLSRCPTECTCLDTVVRCSNKGLKVLPKGIPRDVTELYLDGNQFTLVPKELSNYKHLTLIDLSNNRISTLSNQSFSNMTQLLTLILSYNRLRCIPPRTFDGLKSLRLLSLHGNDISVVPEGAFNDLSALSHLAIGANPLYCDCNMQWLSDWVKSEYKEPGIARCAGPGEMADKLLLTTPSKKFTCQGPVDVNILAKCNPCLSNPCKNDGTCNSDPVDFYRCTCPYGFKGQDCDVPIHACISNPCKHGGTCHLKEGEEDGFWCICADGFEGENCEVNVDDCEDNDCENNSTCVDGINNYTCLCPPEYTGELCEEKLDFCAQDLNPCQHDSKCILTPKGFKCDCTPGYVGEHCDIDFDDCQDNKCKNGAHCTDAVNGYTCICPEGYSGLFCEFSPPMVLPRTSPCDNFDCQNGAQCIVRINEPICQCLPGYQGEKCEKLVSVNFINKESYLQIPSAKVRPQTNITLQIATDEDSGILLYKGDKDHIAVELYRGRVRASYDTGSHPASAIYSVETINDGNFHIVELLALDQSLSLSVDGGNPKIITNLSKQSTLNFDSPLYVGGMPGKSNVASLRQAPGQNGTSFHGCIRNLYINSELQDFQKVPMQTGILPGCEPCHKKVCAHGTCQPSSQAGFTCECQEGWMGPLCDQRTNDPCLGNKCVHGTCLPINAFSYSCKCLEGHGGVLCDEEEDLFNPCQAIKCKHGKCRLSGLGQPYCECSSGYTGDSCDREISCRGERIRDYYQKQQGYAACQTTKKVSRLECRGGCAGGQCCGPLRSKRRKYSFECTDGSSFVDEVEKVVKCGCTRCVS | – | – | – | – | – | inhibited the migration |
